Experimental data: the supplement of paper PMC6757056
± gives the standard deviation of the averaged measurements.

B1: library; a variant is named by its letters at N, in order (parent)
chain: GCUGUCACCGGUGUAUUACCCUAGUGGUCGACCGGUCUGAUGAGUCUNNNNNNAGACGAAACAGC

Tests used:
hypoxanthine [1] = variants of: B1; test: FACS-Seq fitted mean relative fluorescence mCherry/BFP without ligand (log10 relative fluorescence); ligand: hypoxanthine (xanthine aptamer); higher = higher reporter protein expression; conditions: HEK293T, ligand present: no
Summary of the method: (§1)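 Cells were sorted into 6 bins on the mCherry/BFP ratio after 48 h with or without ligand. These were enriched HEK293T cells transduced by lentivirus with a ribozyme-switch mCherry reporter plus an EF1α-BFP marker. Fluorescence was obtained by fitting a normal distribution to sequencing-derived bin counts. Counts came from MiSeq sequencing of PCR-amplified, barcoded genomic DNA, binned by log10(mCherry/BFP), with means scaled to five spiked-in control ribozymes.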

hypoxanthine [2] = variants of: B1; test: normalized RNA/DNA level with ligand (relative to sTRSVctl = 100) (log10 (% of sTRSVctl)); ligand: hypoxanthine (xanthine aptamer); higher = less ribozyme self-cleavage, higher mRNA level; conditions: ligand concentration (+) RNA-Seq: 5 mM, HEK293T, reporter: mCherry (pCS4076), ligand present: yes
Summary of the method: (§2)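 HEK293T cells were transfected with library plasmids carrying ribozyme switches linked to an mCherry reporter, or an eGFP reporter in some ligand experiments, at 4 µg per well of a 6-well plate, with any ligand added 1 h beforehand. After 72 h, total RNA was extracted with EDTA, reverse-transcribed, amplified, barcoded and sequenced. RNA level was defined as RNA reads over DNA reads, normalized to a spiked-in non-cleaving sequence or to the top-ranked sequences. That value was multiplied by 100 and converted to log10, the top set was 25 sequences, and only sequences with ≥100 DNA reads were retained.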

hypoxanthine [3] = variants of: B1; test: normalized RNA/DNA level without ligand (relative to sTRSVctl = 100) (log10 (% of sTRSVctl)); ligand: hypoxanthine (xanthine aptamer); higher = less ribozyme self-cleavage, higher mRNA level; conditions: HEK293T, reporter: mCherry (pCS4076), ligand present: no
Summary of the method: as §2

hypoxanthine [4] = variants of: B1; test: FACS-Seq fitted mean relative fluorescence mCherry/BFP with ligand (log10 relative fluorescence); ligand: hypoxanthine (xanthine aptamer); ligand concentration (+) FACS-Seq: 5 mM; higher = higher reporter protein expression; conditions: HEK293T, ligand present: yes
Summary of the method: as §1

Row | Variant | FACS-Seq fitted mean (log10) (hypoxanthine [1]) | normalized RNA/DNA level with ligand (log10) (hypoxanthine [2]) | normalized RNA/DNA level without ligand (log10) (hypoxanthine [3]) | FACS-Seq fitted mean (log10) (hypoxanthine [4])
1 | AUUGAU | 0.686 ± 0.037 | 1.92 ± 0.07 | 1.73 ± 0.074 | 0.657 ± 0.014
2 | AUUGAG | 0.25 ± 0.005 | 1.82 ± 0.062 | 1.37 ± 0.029 | 0.476 ± 0.0067
3 | AUUGAC | 0.697 ± 0.08 | 1.914 ± 0.01 | 1.816 ± 0.0025 | 0.672 ± 0.11
4 | GUUAGG | 0.451 ± 0.026 | 1.8 ± 0.045 | 1.38 ± 0.033 | 0.648 ± 0.03
5 | GUUAGA | 0.572 ± 0.13 | 1.905 ± 0.0029 | 1.694 ± 0.0036 | 0.619 ± 0.075
6 | UUUAUU | 0.761 ± 0.032 | 1.9334 ± 0.00045 | 1.86 ± 0.047 | 0.799 ± 0.067
7 | UUUAUA | -0.64 ± 0.014 | 1.93 ± 0.024 | 1.849 ± 0.0039 | -0.329 ± 0.11
8 | AUGGCG | 0.211 ± 0.015 | 1.894 ± 0.018 | 1.38 ± 0.075 | 0.691 ± 0.042
9 | CUUAUA | 0.669 ± 0.043 | 1.92 ± 0.037 | 1.792 ± 0.014 | 0.696 ± 0.063
10 | AUGUUG | 0.146 ± 0.039 | 1.85 ± 0.024 | 1.44 ± 0.075 | 0.386 ± 0.071
11 | AUGUUU | 0.564 ± 0.028 | 1.95 ± 0.055 | 1.85 ± 0.03 | 0.43 ± 0.049
12 | CUGUAU | 0.503 ± 0.018 | 1.899 ± 0.013 | 1.82 ± 0.043 | 0.384 ± 0.08
13 | AUUCGG | 0.175 ± 0.028 | 1.87 ± 0.021 | 1.46 ± 0.024 | 0.625 ± 0.014
14 | GUGACG | 0.259 ± 0.081 | 1.828 ± 0.0026 | 1.37 ± 0.044 | 0.523 ± 0.031
15 | GUGACU | -0.666 ± 0.018 | 1.92 ± 0.02 | 1.88 ± 0.049 | -0.229 ± 0.049
16 | GUUGCA | 0.818 ± 0.056 | 1.918 ± 0.017 | 1.81 ± 0.021 | 0.698 ± 0.011
17 | AUGUAU | -0.142 ± 0.082 | 1.925 ± 0.0046 | 1.73 ± 0.021 | 0.156 ± 0.0021
18 | AUGUAG | -0.0834 ± 0.023 | 1.768 ± 0.0076 | 1.27 ± 0.1 | 0.176 ± 0.087
19 | AUGUAA | 0.323 ± 0.0041 | 1.93 ± 0.036 | 1.68 ± 0.0086 | 0.279 ± 0.019
20 | AUGUAC | 0.103 ± 0.13 | 1.893 ± 0.017 | 1.7 ± 0.026 | 0.149 ± 0.054
21 | CUUCAC | 0.798 ± 0.0035 | 1.98 ± 0.022 | 1.89 ± 0.038 | 0.7261 ± 0.0054
22 | CUUAAC | 0.554 ± 0.03 | 1.89 ± 0.059 | 1.82 ± 0.036 | 0.637 ± 0.05
23 | GUUCGU | 0.476 ± 0.02 | 1.98 ± 0.087 | 1.887 ± 0.01 | 0.538 ± 0.014
24 | AUGAUG | -0.144 ± 0.025 | 1.794 ± 0.0069 | 1.32 ± 0.027 | 0.458 ± 0.12

Row | Variant | FACS-Seq fitted mean (log10) (hypoxanthine [1]) | normalized RNA/DNA level with ligand (log10) (hypoxanthine [2]) | normalized RNA/DNA level without ligand (log10) (hypoxanthine [3]) | FACS-Seq fitted mean (log10) (hypoxanthine [4])
25 | AUGAUA | -0.373 ± 0.027 | 1.9 ± 0.036 | 1.736 ± 0.013 | -0.00691 ± 0.00025
26 | UUGGCG | 0.088 ± 0.024 | 2.01 ± 0.034 | 1.87 ± 0.037 | 0.648 ± 0.069
27 | GUUGAG | 0.255 ± 0.018 | 1.81 ± 0.019 | 1.34 ± 0.038 | 0.659 ± 0.082
28 | GUUGAU | 0.224 ± 0.074 | 1.936 ± 0.015 | 1.79 ± 0.021 | 0.303 ± 0.031
29 | AUGAGG | -0.0108 ± 0.028 | 1.644 ± 0.0044 | 1.15 ± 0.056 | 0.252 ± 0.059
30 | AUGAGA | 0.392 ± 0.088 | 1.85 ± 0.062 | 1.451 ± 0.0036 | 0.697 ± 0.0095
31 | AUGAAU | 0.418 ± 0.023 | 1.907 ± 0.01 | 1.66 ± 0.027 | 0.644 ± 0.066
32 | AUGAAG | -0.113 ± 0.019 | 1.73 ± 0.031 | 1.13 ± 0.053 | 0.639 ± 0.0078
33 | UUGUAU | -0.614 ± 0.05 | 1.94 ± 0.077 | 1.93 ± 0.026 | -0.338 ± 0.072
34 | GUGCCG | 0.6409 ± 0.0059 | 1.912 ± 0.0077 | 1.55 ± 0.025 | 0.557 ± 0.12
35 | CUGUGG | 0.575 ± 0.018 | 1.91 ± 0.027 | 1.45 ± 0.089 | 0.842 ± 0.073
36 | UUUAGU | 0.632 ± 0.16 | 1.93 ± 0.043 | 1.83 ± 0.064 | 0.638 ± 0.11
37 | UUUAGG | 0.0978 ± 0.0074 | 1.9004 ± 0.0014 | 1.83 ± 0.0068 | 0.462 ± 0.026
38 | UUUAGC | 0.28 ± 0.015 | 1.95 ± 0.061 | 1.88 ± 0.037 | 0.555 ± 0.04
39 | GUGUGU | 0.3521 ± 0.0033 | 1.894 ± 0.0042 | 1.64 ± 0.023 | 0.466 ± 0.13
40 | GUGUGC | 0.169 ± 0.0029 | 1.801 ± 0.013 | 1.36 ± 0.089 | 0.597 ± 0.033
41 | GUGUGG | 0.0226 ± 0.011 | 1.807 ± 0.0054 | 1.27 ± 0.025 | 0.5793 ± 0.0024
42 | GUGUGA | 0.33 ± 0.037 | 1.905 ± 0.0085 | 1.58 ± 0.026 | 0.67 ± 0.024
43 | GUGCGU | 0.221 ± 0.019 | 1.972 ± 0.018 | 1.71 ± 0.044 | 0.479 ± 0.04
44 | GUGCGG | 0.103 ± 0.016 | 1.88 ± 0.033 | 1.38 ± 0.081 | 0.585 ± 0.033
45 | UUGAAG | 0.35 ± 0.06 | 1.93 ± 0.077 | 1.64 ± 0.059 | 0.6894 ± 0.0024
46 | UUGACA | 0.459 ± 0.015 | 1.95 ± 0.046 | 1.87 ± 0.026 | 0.491 ± 0.048
47 | UUGACG | 0.486 ± 0.025 | 1.93 ± 0.057 | 1.831 ± 0.0085 | 0.5104 ± 0.00062
48 | AUGUCU | 0.305 ± 0.037 | 1.957 ± 0.019 | 1.85 ± 0.046 | 0.0818 ± 0.041

Row | Variant | FACS-Seq fitted mean (log10) (hypoxanthine [1]) | normalized RNA/DNA level with ligand (log10) (hypoxanthine [2]) | normalized RNA/DNA level without ligand (log10) (hypoxanthine [3]) | FACS-Seq fitted mean (log10) (hypoxanthine [4])
49 | UUUGAG | 0.198 ± 0.18 | 1.88 ± 0.027 | 1.54 ± 0.021 | 0.502 ± 0.067
50 | UUUGAA | 0.522 ± 0.076 | 1.9 ± 0.041 | 1.75 ± 0.036 | 0.351 ± 0.04
51 | AUGGGA | 0.29 ± 0.013 | 1.89 ± 0.043 | 1.56 ± 0.08 | 0.592 ± 0.042
52 | AUUCUC | 0.8249 ± 0.0011 | 2.01 ± 0.033 | 1.96 ± 0.044 | 0.724 ± 0.063
53 | GUUAAU | 0.528 ± 0.024 | 1.9 ± 0.02 | 1.8 ± 0.067 | 0.566 ± 0.0099
54 | GUUAAC | 0.164 ± 0.008 | 1.95 ± 0.021 | 1.8064 ± 0.0016 | -0.269 ± 0.1
55 | GUGUCG | 0.585 ± 0.017 | 1.86 ± 0.034 | 1.604 ± 0.0026 | 0.628 ± 0.037
56 | CUGAGA | 0.665 ± 0.033 | 1.93 ± 0.036 | 1.77 ± 0.058 | 0.753 ± 0.0013
57 | CUGAGG | 0.424 ± 0.071 | 1.91 ± 0.03 | 1.58 ± 0.025 | 0.466 ± 0.031
58 | GUGGUG | 0.0578 ± 0.012 | 1.83 ± 0.047 | 1.33 ± 0.043 | 0.546 ± 0.02
59 | GUGGUA | 0.478 ± 0.079 | 1.95 ± 0.026 | 1.759 ± 0.016 | 0.585 ± 0.082
60 | AUGCUA | 0.499 ± 0.086 | 1.966 ± 0.0068 | 1.788 ± 0.0045 | 0.706 ± 0.029
61 | AUUAGA | 0.629 ± 0.042 | 1.895 ± 0.013 | 1.71 ± 0.028 | 0.69 ± 0.04
62 | AUUAGG | 0.0666 ± 0.043 | 1.81 ± 0.045 | 1.31 ± 0.021 | 0.477 ± 0.051
63 | AUUAGC | 0.269 ± 0.031 | 1.92 ± 0.037 | 1.77 ± 0.029 | 0.487 ± 0.023
64 | AUGGUC | 0.812 ± 0.048 | 2 ± 0.036 | 1.92 ± 0.033 | 0.6851 ± 0.0041
65 | AUGGUG | -0.243 ± 0.17 | 1.79 ± 0.062 | 1.331 ± 0.0014 | 0.0458 ± 0.031
66 | AUGGUA | 0.303 ± 0.033 | 1.86 ± 0.045 | 1.73 ± 0.048 | 0.304 ± 0.016
67 | CUGACC | 0.127 ± 0.042 | 1.99 ± 0.037 | 1.91 ± 0.026 | 0.416 ± 0.008
68 | CUGACA | 0.453 ± 0.025 | 1.89 ± 0.0074 | 1.821 ± 0.017 | 0.522 ± 0.12
69 | CUGAAG | 0.454 ± 0.056 | 1.92 ± 0.045 | 1.59 ± 0.032 | 0.669 ± 0.026
70 | CUGUCA | 0.49 ± 0.048 | 2 ± 0.058 | 1.86 ± 0.037 | 0.439 ± 0.09
71 | CUGGGG | 0.345 ± 0.011 | 1.86 ± 0.05 | 1.479 ± 0.0059 | 0.484 ± 0.061
